# Source: patent US20130122568
# Residue numbers refer to the chain shown, from its start.
# What was measured:
# Test in all cases: cleavage_in_vitro
# [1] = molecular target: T1, SalI (Streptomyces albus G) (UniProt Q53608); details: NEB3, 37 C
# T1 sequence: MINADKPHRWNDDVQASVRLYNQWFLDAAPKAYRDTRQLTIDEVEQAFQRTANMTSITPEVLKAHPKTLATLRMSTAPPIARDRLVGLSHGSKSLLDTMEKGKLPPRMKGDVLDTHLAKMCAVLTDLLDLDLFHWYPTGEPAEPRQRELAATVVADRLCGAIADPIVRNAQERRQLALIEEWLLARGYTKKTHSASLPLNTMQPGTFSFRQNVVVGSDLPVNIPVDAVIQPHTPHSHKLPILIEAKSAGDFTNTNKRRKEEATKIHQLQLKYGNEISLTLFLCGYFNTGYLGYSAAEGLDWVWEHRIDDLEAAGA
# [2] = molecular target: T2, SalI-HF R107A (Streptomyces albus G) (UniProt Q53608); details: NEB2, 37 C
# T2 sequence: T1 sequence with R107A
# [3] = system: T3, AvrII (Anabaena variabilis); details: NEB1, 37 C
# T3 sequence: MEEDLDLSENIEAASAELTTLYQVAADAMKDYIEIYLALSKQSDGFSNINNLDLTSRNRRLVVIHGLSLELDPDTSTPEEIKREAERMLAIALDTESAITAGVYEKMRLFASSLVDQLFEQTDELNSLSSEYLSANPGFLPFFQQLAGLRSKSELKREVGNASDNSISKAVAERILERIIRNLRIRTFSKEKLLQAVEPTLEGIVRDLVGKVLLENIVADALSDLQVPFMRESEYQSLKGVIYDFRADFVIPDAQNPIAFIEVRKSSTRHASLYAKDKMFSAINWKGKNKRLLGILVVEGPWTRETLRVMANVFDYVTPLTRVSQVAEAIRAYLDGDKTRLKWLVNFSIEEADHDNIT
# [4] = system: T4, AvrII-HF Y104F (Anabaena variabilis); details: NEB4, 37 C
# T4 sequence: T3 sequence with Y104F
# PvuII (Proteus vulgaris) = molecular target: T5, PvuII (Proteus vulgaris) (UniProt P23657); details: NEB1, 37 C
# T5 sequence: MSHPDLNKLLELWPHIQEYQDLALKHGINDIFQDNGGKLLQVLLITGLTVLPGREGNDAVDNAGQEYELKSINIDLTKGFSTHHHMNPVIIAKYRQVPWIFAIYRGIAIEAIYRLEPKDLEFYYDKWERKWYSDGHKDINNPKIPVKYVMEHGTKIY
substance,measurement,setting,value
HindIII-digested lambda DNA,activity (fidelity index),[1],32
same,activity (fidelity index),[2],> 64000
T7 DNA,activity (fidelity index),[3],64
same,activity (fidelity index),[4],> 1000
pBR322,activity (fidelity index),PvuII (Proteus vulgaris),250
